We go through two molecules from patent publication US20140341937A1 (US Dept. of Health and Human Services, published 2014).

The target in one assay is T1, CCR4 (human, UniProt P51679 1-360).
T1 sequence (looked up): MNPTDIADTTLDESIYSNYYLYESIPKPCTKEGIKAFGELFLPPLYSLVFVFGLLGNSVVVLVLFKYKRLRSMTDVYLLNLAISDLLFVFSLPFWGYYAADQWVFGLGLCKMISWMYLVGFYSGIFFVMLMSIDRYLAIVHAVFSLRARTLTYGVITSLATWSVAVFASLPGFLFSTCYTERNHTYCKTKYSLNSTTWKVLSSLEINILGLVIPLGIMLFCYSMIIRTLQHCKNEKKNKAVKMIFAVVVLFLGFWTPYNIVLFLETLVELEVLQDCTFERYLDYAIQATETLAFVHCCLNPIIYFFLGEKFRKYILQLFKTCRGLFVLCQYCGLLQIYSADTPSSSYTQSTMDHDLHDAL
The experiment in a line: cell-based or functional assay.

The target in the next assay is T2, CCR8 (human, UniProt P51685 1-355).
T2 construct: whole, on cells; also called human CCR8; HEK/CCR8
The experiment in a line: flow cytometry on HEK293/CCR8 cells, 30 min at 4° C., anti-EDN antibody detection. On the technique in general: A flow cytometer gives signals particle by particle.

T2 sequence (P51685 whole entry): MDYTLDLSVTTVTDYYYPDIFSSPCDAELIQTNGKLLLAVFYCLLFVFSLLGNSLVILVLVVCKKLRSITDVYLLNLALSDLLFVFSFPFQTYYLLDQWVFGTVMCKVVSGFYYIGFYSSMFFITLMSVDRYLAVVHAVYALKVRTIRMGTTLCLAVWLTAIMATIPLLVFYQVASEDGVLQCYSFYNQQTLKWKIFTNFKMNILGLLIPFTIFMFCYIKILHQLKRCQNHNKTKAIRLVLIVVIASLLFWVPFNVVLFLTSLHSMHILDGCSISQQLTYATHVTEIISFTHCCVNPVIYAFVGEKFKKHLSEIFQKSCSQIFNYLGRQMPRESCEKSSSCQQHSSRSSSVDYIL

B1: TARC-PE38 (ligand)
chain: MARGTNVGRECCLEYFKGAIPLRKLKTWYQTSEDCSRDAIVFVTVQGRAICSDPNNKRVKNAVKYLQSLERSDGGGSGGGGSLEASGGPEGGSLAALTAHQACHLPLETFTRHRQPRGWEQLEQCGYPVQRLVALYLAARLSWNQVDQVIRNALASPGSGGDLGEAIREQPEQARLALTLAAAESERFVRQGTGNDEAGAANGPADSGDALLERNYPTGAEFLGDGGDVSFSTRGTQNWTVERLLQAHRQLEERGYVFVGYHGTFLEAAQSIVFGGVRARSQDLDAIWRGFYIAGDPALAYGYAQDQEPDARGRIRNGALLRVYVPRSSLPGFYRTSLTLAAPEAAGEVERLIGHPLPLRLDAITGPEEEGGRLETILGWPLAERTVVIPSAIPTDPRNVGGDLDPSSIPDKEQAISALPDYASQPGKPPREDLKRSAEEQKLISEEDLAHHHHHH
Consider B1, for which the “killing of human T lymphoblastoid CCRF-CEM cells in vitro (IC50)” value with CCR4 lay in the range of 3 to 8 nM.

B2: MC148-EDN (ligand)
chain: MALARRKCCLNPTNRPIPNPLLQDLSRVDYQAIGHDCGREAFRVTLQDGRQGCVSVGNKSLLDWLRGHKDLCPQIWSGCESLEFNDAQAPKSLEGGGGSKPPQFTWAQWFETQHINMTSQQCTNAMQVINNYQRRCKNQNTFLLTTFANVVNVCGNPNMTCPSNKTRKNCHHSGSQVPLIHCNLTTPSPQNISNCRYAQTPANMFYIVACDNRDQRRDPPQYPVVPVHLDRIIGSAEEQKLISEEDLAHHHHHH
notes: also called MC148-chemotoxin
Take B2: the binding result with CCR8 is on record as “binds”.
